Patent publication US20020102234A1

Molecular target: human IL-1R1 (IL-1 receptor type I), full length, expressed in transfected Jurkat E6.1 cells (human) (UniProt P14778)
Test: cell-based or functional assay

UniProt P14778, sequence (P14778 18-569): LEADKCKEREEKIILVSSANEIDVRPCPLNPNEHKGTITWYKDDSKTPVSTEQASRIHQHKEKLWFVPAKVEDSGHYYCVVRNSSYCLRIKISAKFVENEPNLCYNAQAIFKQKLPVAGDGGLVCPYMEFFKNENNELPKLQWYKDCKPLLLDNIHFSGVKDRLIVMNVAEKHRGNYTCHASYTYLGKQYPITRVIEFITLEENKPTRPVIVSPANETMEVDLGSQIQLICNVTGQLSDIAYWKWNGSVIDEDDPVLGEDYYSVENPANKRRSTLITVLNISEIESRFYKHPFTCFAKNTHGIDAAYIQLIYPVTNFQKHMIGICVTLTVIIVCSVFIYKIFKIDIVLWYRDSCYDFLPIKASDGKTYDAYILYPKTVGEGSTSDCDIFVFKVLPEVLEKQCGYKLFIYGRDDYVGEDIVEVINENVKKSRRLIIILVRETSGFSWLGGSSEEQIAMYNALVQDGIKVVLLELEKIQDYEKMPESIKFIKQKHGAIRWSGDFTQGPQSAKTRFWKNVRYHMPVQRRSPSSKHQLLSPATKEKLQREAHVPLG

- excess over IL-1α giving 50% inhibition of the NFκB reporter response (fold excess over IL-1α): 1000
Substance: recombinant human IL-1RA (IL-1 receptor antagonist) (from UniProt P18510 26-177) (ligand)
